From patent US12697402B2, “Detection of colonic neoplasia in vivo using near-infrared peptide targeted against overexpressed cMet” (THE REGENTS OF THE UNIVERSITY OF MICHIGAN, priority 2019, dated 2026)
Entries after “also recorded” stand apart in the source; their conditions may differ. Ends that are not written are not given here.

Key:
[1] = molecular target: T1, mouse cMet-ECD (Mus musculus, UniProt P16056); experiment: Pull-down assay; format: binding; conditions: peptide immobilized on EHS beads
T1 construct: incubated with purified mouse cMet-ECD protein (50622-M08H, Sino Biological); purchased Sino Biological 50622-M08H
T1 sequence (P16056 25-931 limits assumed): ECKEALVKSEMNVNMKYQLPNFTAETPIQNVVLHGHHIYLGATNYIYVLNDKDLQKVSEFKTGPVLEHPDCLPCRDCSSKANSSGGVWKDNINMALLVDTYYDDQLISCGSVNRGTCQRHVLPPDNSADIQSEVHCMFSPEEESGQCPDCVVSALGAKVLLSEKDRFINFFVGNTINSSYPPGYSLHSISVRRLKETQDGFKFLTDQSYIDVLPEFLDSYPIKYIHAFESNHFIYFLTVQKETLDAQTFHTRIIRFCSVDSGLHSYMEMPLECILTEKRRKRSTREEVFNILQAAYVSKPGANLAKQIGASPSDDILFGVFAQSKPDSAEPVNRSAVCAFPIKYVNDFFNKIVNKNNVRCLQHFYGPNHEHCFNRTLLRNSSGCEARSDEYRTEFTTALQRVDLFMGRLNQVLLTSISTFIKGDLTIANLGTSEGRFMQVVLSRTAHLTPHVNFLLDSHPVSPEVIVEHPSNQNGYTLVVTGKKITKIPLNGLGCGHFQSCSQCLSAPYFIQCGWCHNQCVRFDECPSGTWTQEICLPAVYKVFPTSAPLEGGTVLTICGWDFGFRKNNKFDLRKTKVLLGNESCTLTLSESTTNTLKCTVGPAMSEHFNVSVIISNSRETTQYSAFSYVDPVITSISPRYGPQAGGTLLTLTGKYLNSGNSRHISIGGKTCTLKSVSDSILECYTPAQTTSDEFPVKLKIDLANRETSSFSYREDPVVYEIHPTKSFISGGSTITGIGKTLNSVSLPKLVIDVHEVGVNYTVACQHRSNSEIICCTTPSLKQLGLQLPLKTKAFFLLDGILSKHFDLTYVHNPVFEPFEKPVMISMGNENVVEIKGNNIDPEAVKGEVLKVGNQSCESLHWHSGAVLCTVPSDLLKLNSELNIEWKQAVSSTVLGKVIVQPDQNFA
Protocol: Interactions between peptide and mouse cMet were evaluated using a pull-down assay (Paul et al., Methods 54:387-395 (2011)). Peptides were immobilized on EHS active beads (17-0906-01, GE), and incubated with purified mouse cMet-ECD protein (50622-M08H, Sino Biological). After washing, bound proteins were detected by Western blot (FIG. 18).

[2] = molecular target: T2, cMet (HT29 cells) (Homo sapiens, UniProt P08581); experiment: Competition for peptide binding with unlabeled peptides; parameters: endogenous in cells; host or cells: HT29 (cMet+), SW480 (cMet-), HT29 with siRNA knockdown; conditions: unlabeled peptide 0-400 μM, 5 μM QQT*-Cy5.5
T2 sequence (P08581 25-1390): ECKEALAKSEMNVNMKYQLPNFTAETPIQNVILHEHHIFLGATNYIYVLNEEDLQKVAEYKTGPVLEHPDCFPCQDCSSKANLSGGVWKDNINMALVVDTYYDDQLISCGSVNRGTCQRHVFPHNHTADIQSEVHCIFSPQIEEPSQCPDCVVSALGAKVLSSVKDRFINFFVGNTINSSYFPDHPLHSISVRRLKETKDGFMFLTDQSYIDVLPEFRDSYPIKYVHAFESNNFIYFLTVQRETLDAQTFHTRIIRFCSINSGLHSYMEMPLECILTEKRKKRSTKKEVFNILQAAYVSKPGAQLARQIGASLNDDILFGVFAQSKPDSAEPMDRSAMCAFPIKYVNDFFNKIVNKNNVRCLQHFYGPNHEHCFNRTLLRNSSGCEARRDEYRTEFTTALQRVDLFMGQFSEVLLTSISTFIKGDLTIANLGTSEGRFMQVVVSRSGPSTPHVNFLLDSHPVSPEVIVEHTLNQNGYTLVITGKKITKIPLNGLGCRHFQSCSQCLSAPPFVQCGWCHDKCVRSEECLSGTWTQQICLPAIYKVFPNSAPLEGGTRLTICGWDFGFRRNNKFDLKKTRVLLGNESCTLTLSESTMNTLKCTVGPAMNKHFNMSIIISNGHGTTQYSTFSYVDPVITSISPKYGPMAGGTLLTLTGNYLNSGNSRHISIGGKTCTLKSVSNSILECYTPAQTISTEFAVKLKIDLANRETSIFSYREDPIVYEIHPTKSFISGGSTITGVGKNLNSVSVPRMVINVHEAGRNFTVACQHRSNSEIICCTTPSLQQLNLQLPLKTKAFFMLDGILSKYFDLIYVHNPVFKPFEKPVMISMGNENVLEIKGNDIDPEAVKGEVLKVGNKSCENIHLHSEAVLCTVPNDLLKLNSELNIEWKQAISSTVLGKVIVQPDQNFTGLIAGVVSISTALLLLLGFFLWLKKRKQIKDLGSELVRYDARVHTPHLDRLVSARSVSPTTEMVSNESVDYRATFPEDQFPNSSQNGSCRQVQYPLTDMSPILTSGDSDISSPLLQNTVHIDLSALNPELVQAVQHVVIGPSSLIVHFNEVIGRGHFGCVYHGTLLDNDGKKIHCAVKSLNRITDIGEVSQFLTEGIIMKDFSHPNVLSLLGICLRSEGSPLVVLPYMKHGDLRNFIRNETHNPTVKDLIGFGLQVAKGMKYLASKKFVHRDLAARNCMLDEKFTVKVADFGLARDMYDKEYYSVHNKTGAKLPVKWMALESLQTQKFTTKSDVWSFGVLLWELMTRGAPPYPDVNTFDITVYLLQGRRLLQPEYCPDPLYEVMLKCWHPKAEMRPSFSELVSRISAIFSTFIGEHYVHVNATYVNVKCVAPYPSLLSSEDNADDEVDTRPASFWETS
Protocol: (§1) We used a competition assay between labeled QQT*-Cy5.5 and either unlabeled QQT* or recombinant human hepatocyte growth factor (HGF, […], R&D) to validate the specific binding of QQT**-Cy5.5 to HT29 cells. Approximately 10^3 HT29 cells were grown to about 70% confluence on coverslips in triplicate. Unlabeled QQT* and either TLQ* peptide at 0, 25, 50, 100, 200 and 400 μM, or HGF at 0, 5, 10, 25, 50 or 100 ng/mL, were first added and incubated with the cells for 30 min (i.e., minutes) at 4° C. The cells were washed with 1×PBS three times and then incubated with 5 μM QQT*-Cy5.5 for another 30 min at 4° C. The cells were washed three times with 1×PBS and then fixed with 4% PFA for 10 min. The cells were washed with 1×PBS and mounted with ProLong Gold reagent containing DAPI (Invitrogen). Confocal fluorescence images were collected at each concentration using a 63× objective (Leica SP5 Inverted 2-Photon FLIM Confocal), and intensities from five cells in three independent images were quantified using custom Matlab (Mathworks, Natick, MA) software.

[3] = molecular target: T2, cMet (HT29 cells); experiment: Competition for peptide binding with HGF; parameters: endogenous in cells; host or cells: HT29 (cMet+), SW480 (cMet-), HT29 with siRNA knockdown; conditions: HGF 0 to 100 ng/mL; confocal microscopy
Protocol: as §1

[4] = tested on: phosphorylation of cMet, AKT and ERK1/2; experiment: Effect of peptide on cell signaling (Western blot); format: cell-based, human; conditions: HT29 cells; 10, 30, 120 min; HGF 25 ng/mL; peptide 5 or 100 μM
Protocol: HT29 cells were treated with serum-free medium overnight for starvation before incubation with hHGF (hHGF, 294-HG-005, R&D) or peptides. Recombinant Human HGF Protein was added to HT29 cells at concentrations of 25 ng/ml for 10, 30, or 120 min in separate wells. QQT*-Cy5.5 and TLQ*-Cy5.5 were added at concentrations of 5 or 100 μM for 10, 30, and 120 min. Peptides were added at concentrations of 5 and 100 μM for 10, 30, or 120 min. Cells were then washed with 1×PBS and lysed with Pierce RIPA buffer containing Halt Phosphatase Inhibitor Cocktail (Thermo Fisher) and Halt Protease Inhibitor Cocktail (Thermo Fisher). Protein contents were quantified by Bicinchoninic Acid Assay (BCA). Anti-cMet antibody (Cell Signaling, #8198), phospho-cMet (Tyr1234/1235) antibody (Cell Signaling, #3077), anti-AKT antibody (Cell Signaling, #4691), anti-phospho-AKT antibody (Cell Signaling, #9271), anti-ERK1/2 antibody (Abcam, #ab17942), anti-phospho-ERK1/2 antibody (Abcam, #ab50011), and anti-tubulin antibody (Invitrogen, #32-2600) were used per manufacturer's instructions.

[5] = molecular target: T3, cMet (Homo sapiens, UniProt P08581); experiment: Confocal microscopy of binding to HT29 (cMet+) versus SW480 (cMet−) cells; format: cell-based
T3 sequence (P08581 25-1390): as above
Protocol: (§2) HT29, SW480, S114 and NIH3T3 cells were inoculated in 12-well cell culture plates with circle glass coverslips to about 80% confluence. The cells were blocked with 1×PBS plus 2% BSA for 1 hour at 4° C., then were incubated with 5 μM peptides for 10 min at RT in the dark, washed thrice, and fixed with 4% PFA for 5 min, washed with 1×PBS, then mounted on glass slides with ProLong Gold reagent containing DAPI (Invitrogen, Waltham, MA). As positive control, after blocking with 2% BSA for 1 hour at 4° C., A 1:3000 dilution of primary monoclonal rabbit anti-cMet antibody (Cell Signaling Technology, #8198) was incubated with cells overnight at 4° C. Afterward, the cells were washed thrice with 1×PBS and further incubated with a 1:500 dilution of AF488-labeled secondary goat ant-rabbit immunoglobulin G antibody (Life Technologies, #A-11029) for 1 hour at RT, washed thrice, and then mounted on glass slides with ProLong Gold reagent containing DAPI. Confocal fluorescence images were collected using a 63× oil-immersion objective (Leica SP5 Inverted 2-Photon FLIM Confocal). Fluorescence intensities from five cells in two independent images were quantified using custom Matlab (Mathworks) software.

[6] = molecular target: T3, cMet; experiment: Confocal microscopy of binding to S114 (cMet+) versus NIH3T3 (cMet−) cells; format: cell-based, mouse; parameters: expressed in transfected cells; host or cells: S114 (NIH 3T3 mouse fibroblasts transformed with human HGF/SF and Met); NIH3T3 as cMet- control; conditions: 5 μM peptide
From the text: Human CRC cell lines HT29, SW480, CCD841 and mouse embryonic fibroblast cell line NIH 3T3 were obtained from the American Type Culture Collection (ATCC, Manassas, VA). The S114 cell line comprised NIH 3T3 cells transformed with human HGF/SF and Met and expressed cMet. We used McCoy's 5A Medium (Gibco) for culturing HT29 cells and Dulbecco's Modified Eagle Medium (Gibco) was used to culture SW480, NIH3T3 and S114 cells. Eagle's Minimum Essential Medium (Lonza) was used for CCD841 cells. All cells were cultured at 37° C. in 5% CO2, and supplemented with 10% fetal bovine serum (FBS). The cells were passaged using 0.25% trypsin containing EDTA (Mediatech, Manassas, VA). Cell numbers were quantitated on a hemocytometer. Peptide synthesis reagents were obtained from Anaspec (Anaspec, Fremont, CA) or AAPPTEC (AAPPTEC, Louisville, KY), were of the highest grade available (>99% purity), and were used without further purification. […]
HT29, SW480, S114 and NIH3T3 cells were inoculated in 12-well cell culture plates with circle glass coverslips to about 80% confluence. […] Confocal fluorescence images were collected using a 63× oil-immersion objective (Leica SP5 Inverted 2-Photon FLIM Confocal). Fluorescence intensities from five cells in two independent images were quantified using custom Matlab (Mathworks) software.

[7] = tested on: human colon organoids (adenoma, SSA, normal); experiment: In vivo endoscopic imaging of patient-derived colon organoids implanted in NOD/SCID mice; conditions: NOD/SCID mouse; topical administration
Protocol: Acute colitis was induced in 8-week-old NOD.Cg-Prkdcscid Il2rgtm1Wjl/SzJ mice (005557, The Jackson Laboratory)^40,41 by feeding them with 3.0% DSS (molecular weight 40,000; Cat #AAJ6360622; Alfa Aesar) dissolved in drinking water for 5 days (d). At 6 d, the donor organoids were released from the type I collagen gel, dissociated by EDTA, and washed with BSA-containing PBS as with the passage procedure. Approximately 2.5-5E5 cell aggregates in 200 μL were transplanted per mouse as previously described^42,43. Organoids were instilled into colonic lumen as a suspension by using a syringe and a thin flexible catheter 4 cm in length and 2 mm in diameter. The anal verge was glued for 6 hours after infusion to prevent luminal contents from being excreted immediately, then glue were removed by Ethanol. Mice were maintained as usual after the transplantation. The mice were housed in pathogen-free conditions and supplied water ad libitum under controlled conditions of humidity (50±10%), light (12/12 hour light/dark cycle) and temperature (25° C.). […]
(§3) A rigid small animal endoscope (Karl Sorz Veterinary Endoscopy) was inserted into the rectum (Liu et al., Gut 62:395-403 (2013)) and used to image the distal colon^45. […] The distance between the endoscope tip and the anus, and the clockwise location of polyps, were recorded. […] A ratio of the fluorescence and reflectance images was determined to correct for differences in distance and geometry over the image field-of-view (FOV) (Joshi et al., Endoscopy 48:A1-A13 (2016)). […]
The mean fluorescence intensity was used to calculate the target-to-background (T/B) ratios. Images were processed and analyzed using custom software in Matlab (Mathworks) (Joshi et al., Gastroenterology 152:1002-1013 e1009 (2017)). Matlab software was used to quantify the fluorescence intensity. The fluorescence intensity of regions of interest (ROI) was corrected by taking the ratio of fluorescence to reflectance, the fluorescence of interested region was taken as target (T), and adjacent mouse normal colon region with equal area was picked for use as background (B)^46. […]

[8] = tested on: flat and polyploid colonic adenomas; experiment: In vivo endoscopic imaging in CPC;Apc mice; conditions: CPC;Apc mouse; topical / intra-rectal, 100 μM, 5 min incubation
Protocol: A CPC;Apc mouse model that can develop spontaneous adenomas in distal colon epithelium^44 was also used. Under the control of the Cdx2 promoter (CDX2P-9.5NLS-Cre), Cre recombinase can sporadically delete the adenomatous polyposis coli (APC) allele, resulting in polyploid colonic adenomas or flat lesions. We collected images from mice (n=8) that ranged in age from 7 to 10 months.
In vivo imaging was performed with approval of the University of Michigan Committee on the Use and Care of Animals. CPC;Apc mice were used for in vivo imaging. […]
as §3
The mean fluorescence intensity was used to calculate the target-to-background (T/B) ratios. Images were processed and analyzed using custom software in Matlab (Mathworks) (Joshi et al., Gastroenterology 152:1002-1013 e1009 (2017)). Matlab software was used to quantify the fluorescence intensity. […]

[9] = molecular target: T3, cMet; experiment: siRNA knockdown of cMet in HT29 cells, binding by confocal microscopy; format: cell-based
Protocol: as §2
We knocked down cMet protein levels with siRNAs and then evaluated the binding of QQT*-Cy5.5 and TLQ*-Cy5.5 to the surface of si-cMet-transfected HT29 cells to validate specific peptide binding. We used siRNA1 (SASI_Hs01_00133002, Sigma) for HT29, siRNA2 (SASI_WI_00000001, Sigma) for S114, and MISSION® siRNA #1 Universal Negative Control (SIC001, Sigma) for a negative control. We transfected cells with Lipofectamine 2000 (11668027, Invitrogen) per manufacturer instructions. Knockdown of cMet was confirmed by Western blot (FIG. 18). The cells were incubated with 5 μM peptide for 5 min at RT (i.e., room temperature), and then fixed and mounted on glass slides with ProLong Gold reagent containing DAPI, as previous described. […] Confocal fluorescence images were collected using a 63× oil-immersion objective (Leica SP5 Inverted 2-Photon FLIM Confocal).

[10] = confocal microscopy, 5 μM peptide

binding to mouse cMet-ECD, Western blot band [1] | change of binding to HT29 cells with addition of HGF [3] | mean intensity HT29 versus SW480 cells [5] | binding to surface of HT29 cells (cMet+) [5, 10] | signal / binding to SW480 cells (cMet−) [5, 10] | binding to surface of S114 cells (cMet+) [6] | signal / binding to NIH3T3 cells (cMet−) [6] | intensity reduction with knockdown of cMet ([9]; HT29 siCL versus sicMet) | binding to surface of control HT29 cells ([9]; HT29 transfected with siCL non-targeting siRNA, confocal microscopy, 5 μM peptide) | Substance | change of QQT*-Cy5.5 fluorescence intensity on addition of unlabeled peptide [2] | phosphorylation of cMet and downstream AKT and ERK1/2 [4] | fluorescence signal from human SSA organoid in vivo [7] | fluorescence signal from human adenoma organoid in vivo [7] | fluorescence signal from human normal organoid in vivo [7] | NIR fluorescence image of flat lesion [8] | NIR fluorescence image of polyp [8] | fluorescence intensity / binding with HT29 knockdown cells ([9]; HT29 transfected with sicMet-targeting siRNA, confocal microscopy)
strong band | no competition | – | – | – | – | – | – | – | QQTNWSL [QQT*] | decrease significantly; also recorded: significant decrease | no change in phosphorylation | – | – | – | – | – | –
– | – | – | – | – | – | – | – | – | TLQWNQS (Artificial Seuqence) [TLQ*] | no significant change | – | – | – | – | – | – | –
– | – | 0.85 fold change | minimal binding | little binding | minimal binding | little binding | 0.96 fold | minimal binding | TLQ*-Cy5.5: scrambled control sequence TLQWNQS (SEQ ID NO:3) labeled with Cy5.5 via GGGSK linker (TLQWNQSGGGS-{K(Cy5.5)-NH2}) | – | – | minimal signal; also recorded: little signal | little signal; also recorded: minimal signal | little signal; also recorded: minimal signal | little signal; also recorded: minimal signal | minimal signal | little signal; also recorded: little binding
